Laboratory results from patent EP1593386A1 (Charité - Universitätsmedizin Berlin, dated 2005).

Target: T1, CD7 on human peripheral blood T lymphocytes (human, UniProt P09564 26-240)
T1 construct: whole, on cells
T1 sequence (looked up): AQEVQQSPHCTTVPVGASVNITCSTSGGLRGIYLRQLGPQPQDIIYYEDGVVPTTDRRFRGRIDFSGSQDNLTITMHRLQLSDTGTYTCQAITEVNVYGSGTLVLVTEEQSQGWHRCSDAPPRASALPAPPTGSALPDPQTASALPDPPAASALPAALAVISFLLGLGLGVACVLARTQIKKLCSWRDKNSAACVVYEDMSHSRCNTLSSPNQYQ
Assay: pull-down with galectin-2 coated tosyl-activated magnetic beads on PBT, immunoblot for CD7

binding result: no binding
B1: galectin-2 (ligand, UniProt P05162 1-132, looked up)
chain: MTGELEVKNMDMKPGSTLKITGSIADGTDGFVINLGQGTDKLNLHFNPRFSESTIVCNSLDGSNWGQEQREDHLCFSPGSEVKFTVTFESDKFKVKLPDGHELTFPNRLGHSHLSYLSVRGGFNMSSFKLKE
modifications: biotin-labelled (sites not given) in the flow cytometry assays; coupled to tosyl-activated magnetic beads in the co-immunoprecipitation
notes: also called Gal-2; biotin-labelled galectin-2
